How the values were obtained:
Experiment in all cases: cell-based or functional assay
[1] = target: IL-2R on human cells (activated CD4 T cells, PBMC subsets, NK92) (human) (UniProt P14784); parameters: AUC of STAT5-P on PD1+ T cells / AUC of STAT5-P on PD1-blocked T cells: unit not given beside the values
[2] = target: IL-2R on human cells (activated CD4 T cells, PBMC subsets, NK92) (human) (UniProt P14784); parameters: EC50 on MFI of STAT5-P, PD-1+ CD4 T cells: unit not given beside the values
[3] = target: IL-2R on human cells (activated CD4 T cells, PBMC subsets, NK92) (human) (UniProt P14784)

IL-2R on human cells (activated CD4 T cells, PBMC subsets, NK92) (human), sequence (P14784 27-551, chain 1 of 2): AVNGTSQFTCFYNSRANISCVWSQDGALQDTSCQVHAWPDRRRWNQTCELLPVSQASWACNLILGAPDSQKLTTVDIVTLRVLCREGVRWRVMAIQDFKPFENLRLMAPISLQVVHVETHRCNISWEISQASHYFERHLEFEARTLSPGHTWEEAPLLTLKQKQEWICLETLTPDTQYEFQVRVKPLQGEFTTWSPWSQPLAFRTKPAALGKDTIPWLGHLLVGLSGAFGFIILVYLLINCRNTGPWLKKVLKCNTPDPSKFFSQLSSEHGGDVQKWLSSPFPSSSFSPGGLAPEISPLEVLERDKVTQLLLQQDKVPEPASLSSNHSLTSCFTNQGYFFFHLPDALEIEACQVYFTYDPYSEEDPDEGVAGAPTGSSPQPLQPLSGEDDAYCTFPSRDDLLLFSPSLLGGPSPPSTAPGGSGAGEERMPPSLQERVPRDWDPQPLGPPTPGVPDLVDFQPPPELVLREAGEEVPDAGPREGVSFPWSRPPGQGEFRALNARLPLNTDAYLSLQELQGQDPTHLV
IL-2R on human cells (activated CD4 T cells, PBMC subsets, NK92) (human), sequence (P31785 23-369, chain 2 of 2, further chain): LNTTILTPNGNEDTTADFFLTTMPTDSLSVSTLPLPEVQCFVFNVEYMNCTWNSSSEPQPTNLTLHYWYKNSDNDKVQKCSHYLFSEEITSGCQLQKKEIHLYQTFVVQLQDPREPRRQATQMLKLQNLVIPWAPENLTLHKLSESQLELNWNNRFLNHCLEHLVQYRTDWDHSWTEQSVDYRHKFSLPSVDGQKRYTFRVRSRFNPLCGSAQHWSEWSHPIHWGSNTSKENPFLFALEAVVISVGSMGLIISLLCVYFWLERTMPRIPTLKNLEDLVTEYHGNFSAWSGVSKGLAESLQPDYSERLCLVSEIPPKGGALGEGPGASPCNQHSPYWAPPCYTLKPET

## FAP-IL2v
[1]
  AUC of STAT5-P on PD1+ T cells: 144
  AUC of STAT5-P on PD1-blocked T cells: 142
  Potency reduction vs PD1-IL2v: 8.13 fold
[2]
  EC50 on MFI of STAT5-P, PD-1+ CD4 T cells: 8530
  Potency reduction versus PD1-IL2v (MFI): 12.6 fold
  Potency reduction versus PD1-IL2v (frequency): 12.9 fold
[3]
  Percentage of internalization (0.6 nM, activated CD4 T cells, 3 h at 37 C): 89.8%
  Potency reduction vs PD1-IL2v on PD-1+ LAG-3+ T cells: 107 fold

Reference: patent publication US20260083855A1
